Molecular target: GAL4-HSF2N96C238 (HSF2 deletion mutant fused with the yeast GAL4-BD derived from pM) (yeast; human) (UniProt P04386)
Assay: cell-based or functional assay

Question: How did the luciferase reporter activity in two-hybrid assay in K562 cells (induction fold against control VP16) turn out when “VP16-HSF2BP (HSF2BP fused with the VP16 transcriptional activation domain derived from pVP16) (from UniProt O75031 1-334)” was run?
Answer: 11 fold

Reference: US6485936
